{"source": "patent US20250298013A1", "key": {"[1]": {"biological_target": "Background (Staphylococcus aureus)", "assay": "SPRi, in-line blocking: IgG mix injected after thiolated PEG over a chip functionalised with thiolated protein A, (+) press load (300 Pa) [Continued) E]"}, "[2]": {"biological_target": "Background (Staphylococcus aureus)", "assay": "SPRi, in-line blocking: IgG mix injected after thiolated PEG over a chip functionalised with thiolated protein A, (-) press load [Continued) C]"}}, "data": [{"substance": "IgG mix (antibody)", "values": [{"measurement": "IgG change (Background curve) (%Reflectivity)", "setting": "[1]", "value": 2}, {"measurement": "IgG change (Background curve) (%Reflectivity)", "setting": "[2]", "value": 12}]}]}
